This passage reports stoichiometry N results from publication PMC7373187.

The target in test [1] is His6-GapR_(1–69), truncated GapR lacking the entire helix H3 (C. crescentus). The test can be described thus: cross-linking; 400 mM EDC plus 100 mM NHS, 2 h, room temperature; proteins at 50 μM (monomer); 1 M NaCl and 1 mM EDTA (no DNA bound); SDS-PAGE, silver stained.
Test [2] has the same target. The test is described as follows: SEC; Superdex 75 10/300 GL, 1 M NaCl and 1 mM EDTA, proteins separated from copurified DNA; His6-GapR1-89 at 50 μM, His6-GapR1-69 at 125 μM, His6-GapR1-76 at 100 μM (monomer). For orientation: Size exclusion chromatography separates by hydrodynamic size, large species first.
Test [3] deals with His6-GapR_(1–76), truncated GapR lacking the hydrophobic patch of helix H3 (C. crescentus). The test is described as follows: cross-linking; 400 mM EDC plus 100 mM NHS, 2 h, room temperature; proteins at 50 μM (monomer); 1 M NaCl and 1 mM EDTA (no DNA bound); SDS-PAGE, silver stained.
For test [4] the target is unchanged. The test is described as follows: SEC; Superdex 75 10/300 GL, 1 M NaCl and 1 mM EDTA, proteins separated from copurified DNA; His6-GapR1-89 at 50 μM, His6-GapR1-69 at 125 μM, His6-GapR1-76 at 100 μM (monomer).
The target of test [5] is His6-GapR_(1–89), full-length wild-type GapR of Caulobacter crescentus (C. crescentus). The test can be described thus: cross-linking; 400 mM EDC plus 100 mM NHS, 2 h, room temperature; proteins at 50 μM (monomer); 1 M NaCl and 1 mM EDTA (no DNA bound); SDS-PAGE, silver stained.
The target is the same in test [6]. The test is described as follows: cross-linking; 400 mM EDC plus 100 mM NHS, 2 h, room temperature; proteins at 50 μM (monomer); 150 mM NaCl, 10% glycerol, 20 mM HEPES (for tagged and untagged GapR1-89 also 50 mM sodium phosphate); SDS-PAGE, silver stained.
For test [7] the target is unchanged. The test is described as follows: SEC; Superdex 75 10/300 GL, 1 M NaCl and 1 mM EDTA, proteins separated from copurified DNA; His6-GapR1-89 at 50 μM, His6-GapR1-69 at 125 μM, His6-GapR1-76 at 100 μM (monomer).
For test [8], the target named is untagged GapR_(1–89) (C. crescentus). The test is described as follows: cross-linking; 400 mM EDC plus 100 mM NHS, 2 h, room temperature; proteins at 50 μM (monomer); 150 mM NaCl, 10% glycerol, 20 mM HEPES (for tagged and untagged GapR1-89 also 50 mM sodium phosphate); SDS-PAGE, silver stained.

By stoichiometry N is commonly meant a count of units in the complex or per binding partner. As for “His6-GapR_(1–69), truncated GapR lacking the entire helix H3 (domain or fragment)”, the stoichiometry N in test [1] and in test [2] was 2 in each case.

In the case of “His6-GapR_(1–76), truncated GapR lacking the hydrophobic patch of helix H3 (domain or fragment)”, the stoichiometry N in test [3] and in test [4] was 2 in each case.

Turning to “His6-GapR_(1–89), full-length wild-type GapR of Caulobacter crescentus (natural protein)”, the stoichiometry N in test [5], in test [6] and in test [7] was 4 in each case.

With untagged GapR_(1–89) (natural protein), the stoichiometry N in test [8] was 4.
